Where “and” joins values, the source holds several entries; their conditions need not be identical. Equal entries are not always repeated.
Legend:
Assay type in all cases: binding
Conditions in all cases: response relative to ADIFAB2
[1] = Probe fluorescence ratio response to arachidonic acid relative to ADIFAB2
Procedure, shortened: (§1)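 Each fatty acid's response was expressed relative to ADIFAB2, the rI-FABP-L72A probe, as ΔR/ΔRreference. ΔR is the change in the background-corrected two-wavelength intensity ratio R=Fλ1/Fλ2 from its analyte-free baseline R0. Emission was read near about 420-480 nm for unbound and about 495-580 nm for FFA-bound probe.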

[2] = Probe fluorescence ratio response to linolenic acid relative to ADIFAB2
Procedure, shortened: as §1

[3] = Probe fluorescence ratio response to linoleic acid relative to ADIFAB2
Procedure, shortened: as §1

[4] = Probe fluorescence ratio response to oleic acid relative to ADIFAB2
Procedure, shortened: as §1

[5] = Probe fluorescence ratio response to palmitic acid relative to ADIFAB2
Procedure, shortened: as §1

Molecule | DR/DR AA ([1]; Arachidonic acid) | DR/DR LNA [2] | DR/DR LA [3] | DR/DR OA [4] | DR/DR PA [5] | DR/DR AA ([1]; arachidonic acid)
68G, 72A (protein, listed as Rattus norvegicus, PEPTIDE (1)...(131) wild-type rat intestinal fatty acid binding protein) AFDGTWKVDRNENYEKFMEKMGINVVKRKLGAHDNLKLTITQEGNKFTVKESSNFRNIDVVFELGVDGAYSAADGTELTGTWTMEGNKLVGKFKRVDNGKELIAVREISGNELIQTYTYEGVEAKRIFKKE | 0.24 | 0.18 | 0.17 | 0.21 | 0.12 | 
68Q, 72A (protein, listed as Rattus norvegicus, PEPTIDE (1)...(131) wild-type rat intestinal fatty acid binding protein) AFDGTWKVDRNENYEKFMEKMGINVVKRKLGAHDNLKLTITQEGNKFTVKESSNFRNIDVVFELGVDQAYSAADGTELTGTWTMEGNKLVGKFKRVDNGKELIAVREISGNELIQTYTYEGVEAKRIFKKE | 0.47 | 0.38 | 0.43 | 0.45 | 0.28 | 
68I, 72A (protein, listed as Rattus norvegicus, PEPTIDE (1)...(131) wild-type rat intestinal fatty acid binding protein) AFDGTWKVDRNENYEKFMEKMGINVVKRKLGAHDNLKLTITQEGNKFTVKESSNFRNIDVVFELGVDIAYSAADGTELTGTWTMEGNKLVGKFKRVDNGKELIAVREISGNELIQTYTYEGVEAKRIFKKE | 0.42 | 0.36 | 0.37 | 0.39 | 0.35 | 
72C (protein, listed as Rattus norvegicus, PEPTIDE (1)...(131) wild-type rat intestinal fatty acid binding protein) AFDGTWKVDRNENYEKFMEKMGINVVKRKLGAHDNLKLTITQEGNKFTVKESSNFRNIDVVFELGVDFAYSCADGTELTGTWTMEGNKLVGKFKRVDNGKELIAVREISGNELIQTYTYEGVEAKRIFKKE | 0.14 | 0.17 | 0.25 | 0.20 | 0.12 | 
72G (protein, listed as Rattus norvegicus, PEPTIDE (1)...(131) wild-type rat intestinal fatty acid binding protein) AFDGTWKVDRNENYEKFMEKMGINVVKRKLGAHDNLKLTITQEGNKFTVKESSNFRNIDVVFELGVDFAYSGADGTELTGTWTMEGNKLVGKFKRVDNGKELIAVREISGNELIQTYTYEGVEAKRIFKKE | 0.62 | 0.48 and 0.590 | 0.48 and 0.544 | 0.52 and 0.628 | 0.26 and 0.307 | 0.871
72D (protein, listed as Rattus norvegicus, PEPTIDE (1)...(131) wild-type rat intestinal fatty acid binding protein) AFDGTWKVDRNENYEKFMEKMGINVVKRKLGAHDNLKLTITQEGNKFTVKESSNFRNIDVVFELGVDFAYSDADGTELTGTWTMEGNKLVGKFKRVDNGKELIAVREISGNELIQTYTYEGVEAKRIFKKE | 0.27 | 0.41 | 0.37 | 0.28 | 0.24 | 
68L, 72A (protein, listed as Rattus norvegicus, PEPTIDE (1)...(131) wild-type rat intestinal fatty acid binding protein) AFDGTWKVDRNENYEKFMEKMGINVVKRKLGAHDNLKLTITQEGNKFTVKESSNFRNIDVVFELGVDLAYSAADGTELTGTWTMEGNKLVGKFKRVDNGKELIAVREISGNELIQTYTYEGVEAKRIFKKE | 0.66 | 0.52 | 0.53 | 0.55 and 0.547 | 0.52 and 0.524 | 0.658
70C, 72A (protein, listed as Rattus norvegicus, PEPTIDE (1)...(131) wild-type rat intestinal fatty acid binding protein) AFDGTWKVDRNENYEKFMEKMGINVVKRKLGAHDNLKLTITQEGNKFTVKESSNFRNIDVVFELGVDFACSAADGTELTGTWTMEGNKLVGKFKRVDNGKELIAVREISGNELIQTYTYEGVEAKRIFKKE | 0.23 | 0.24 | 0.27 | 0.24 | 0.14 | 
68S, 72A (protein, listed as Rattus norvegicus, PEPTIDE (1)...(131) wild-type rat intestinal fatty acid binding protein) AFDGTWKVDRNENYEKFMEKMGINVVKRKLGAHDNLKLTITQEGNKFTVKESSNFRNIDVVFELGVDSAYSAADGTELTGTWTMEGNKLVGKFKRVDNGKELIAVREISGNELIQTYTYEGVEAKRIFKKE | 0.20 | 0.14 | 0.14 | 0.14 | 0.10 | 
68T, 72A (protein, listed as Rattus norvegicus, PEPTIDE (1)...(131) wild-type rat intestinal fatty acid binding protein) AFDGTWKVDRNENYEKFMEKMGINVVKRKLGAHDNLKLTITQEGNKFTVKESSNFRNIDVVFELGVDTAYSAADGTELTGTWTMEGNKLVGKFKRVDNGKELIAVREISGNELIQTYTYEGVEAKRIFKKE | 0.18 | 0.12 | 0.11 | 0.13 | 0.10 | 
68V, 72A (protein, listed as Rattus norvegicus, PEPTIDE (1)...(131) wild-type rat intestinal fatty acid binding protein) AFDGTWKVDRNENYEKFMEKMGINVVKRKLGAHDNLKLTITQEGNKFTVKESSNFRNIDVVFELGVDVAYSAADGTELTGTWTMEGNKLVGKFKRVDNGKELIAVREISGNELIQTYTYEGVEAKRIFKKE | 0.29 | 0.22 | 0.23 | 0.25 | 0.19 | 
104D1, 72A (protein, listed as Rattus norvegicus, PEPTIDE (1)...(131) wild-type rat intestinal fatty acid binding protein) AFDGTWKVDRNENYEKFMEKMGINVVKRKLGAHDNLKLTITQEGNKFTVKESSNFRNIDVVFELGVDFAYSAADGTELTGTWTMEGNKLVGKFKRVDNGKELIDVREISGNELIQTYTYEGVEAKRIFKKE |  | 0.67 | 0.71 | 0.64 | 0.34 | 0.48
68Y, 72A (protein, listed as Rattus norvegicus, PEPTIDE (1)...(131) wild-type rat intestinal fatty acid binding protein) AFDGTWKVDRNENYEKFMEKMGINVVKRKLGAHDNLKLTITQEGNKFTVKESSNFRNIDVVFELGVDYAYSAADGTELTGTWTMEGNKLVGKFKRVDNGKELIAVREISGNELIQTYTYEGVEAKRIFKKE | 0.42 | 0.41 | 0.36 | 0.46 | 0.35 | 
68M, 72A (protein, listed as Rattus norvegicus, PEPTIDE (1)...(131) wild-type rat intestinal fatty acid binding protein) AFDGTWKVDRNENYEKFMEKMGINVVKRKLGAHDNLKLTITQEGNKFTVKESSNFRNIDVVFELGVDMAYSAADGTELTGTWTMEGNKLVGKFKRVDNGKELIAVREISGNELIQTYTYEGVEAKRIFKKE | 0.52 | 0.35 | 0.34 | 0.35 | 0.33 | 
72E (protein, listed as Rattus norvegicus, PEPTIDE (1)...(131) wild-type rat intestinal fatty acid binding protein) AFDGTWKVDRNENYEKFMEKMGINVVKRKLGAHDNLKLTITQEGNKFTVKESSNFRNIDVVFELGVDFAYSEADGTELTGTWTMEGNKLVGKFKRVDNGKELIAVREISGNELIQTYTYEGVEAKRIFKKE | 0.27 | 0.36 | 0.38 | 0.34 | 0.19 | 
68N, 72A (protein, listed as Rattus norvegicus, PEPTIDE (1)...(131) wild-type rat intestinal fatty acid binding protein) AFDGTWKVDRNENYEKFMEKMGINVVKRKLGAHDNLKLTITQEGNKFTVKESSNFRNIDVVFELGVDNAYSAADGTELTGTWTMEGNKLVGKFKRVDNGKELIAVREISGNELIQTYTYEGVEAKRIFKKE | 0.67 | 0.60 | 0.67 | 0.63 | 0.35 | 
70M, 72A (protein, listed as Rattus norvegicus, PEPTIDE (1)...(131) wild-type rat intestinal fatty acid binding protein) AFDGTWKVDRNENYEKFMEKMGINVVKRKLGAHDNLKLTITQEGNKFTVKESSNFRNIDVVFELGVDFAMSAADGTELTGTWTMEGNKLVGKFKRVDNGKELIAVREISGNELIQTYTYEGVEAKRIFKKE | 0.34 | 0.53 | 0.39 | 0.42 | 0.26 | 

Source: US20060257938A1, “Method of screening for drugs that block ligand binding to a lipid binding protein” (priority 2005, published 2006)
